The target of the assay is T1, CD19 (UniProt P15391 20-556, limits assumed).
T1 sequence (looked up): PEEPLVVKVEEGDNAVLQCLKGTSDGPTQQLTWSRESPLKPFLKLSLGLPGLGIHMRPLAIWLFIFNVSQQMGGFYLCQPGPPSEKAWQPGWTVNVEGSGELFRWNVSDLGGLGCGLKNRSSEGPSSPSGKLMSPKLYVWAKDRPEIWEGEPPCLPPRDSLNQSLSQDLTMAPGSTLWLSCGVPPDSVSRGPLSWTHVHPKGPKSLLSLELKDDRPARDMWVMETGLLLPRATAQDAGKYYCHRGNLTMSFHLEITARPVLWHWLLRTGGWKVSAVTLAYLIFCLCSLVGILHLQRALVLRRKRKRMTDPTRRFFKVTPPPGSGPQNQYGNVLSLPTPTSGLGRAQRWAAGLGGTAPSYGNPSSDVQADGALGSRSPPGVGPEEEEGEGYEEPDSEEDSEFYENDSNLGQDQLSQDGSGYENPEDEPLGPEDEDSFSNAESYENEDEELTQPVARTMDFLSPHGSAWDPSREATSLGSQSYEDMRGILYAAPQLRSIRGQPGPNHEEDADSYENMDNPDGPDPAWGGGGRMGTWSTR
Description: cell-based or functional assay.

B1: hBU12 co-conjugate (2 drugs on 1 ADC) (antibody, V domains shown)
VH: QVQLQESGPGLVKPSQTLSLTCTVSGGSISTSGMGVGWIRQHPGKGLEWIGHIWWDDDKRYNPALKSRVTISVDTSKNQFSLKLSSVTAADTAVYYCARMELWSYYFDYWGQGTLVTVSS
VL: EIVLTQSPATLSLSPGERATLSCSASSSVSYMHWYQQKPGQAPRLLIYDTSKLASGIPARFSGSGSGTDFTLTISSLEPEDVAVYYCFQGSVYPFTFGQGTKLEIKR
Consider B1, for which the “Co-Conjugate IC50 (ng/mL), cytotoxicity on Granta-519 cells” value came to 3 ng/mL and the “Co-Conjugate IC50 (ng/mL), cytotoxicity on SU-DHL-16 cells” value worked out at 0.2 ng/mL.

The values are drawn from US20200129639A1 (Seagen, published 2020).
